Test results: publication doi:10.1101/2024.06.21.600134 (bioRxiv, 2024)

Target: LPD-3 (C-terminally tagged, from lpd3::mvenus worms) (C. elegans, UniProt A0A0K3AWP8 1-4022)
Test: affinity purification with mass spectrometry

- binding result: binds
B1: Spigot (natural protein, C. elegans, UniProt Q4W5H0 1-276, looked up)
chain: MRIFVFDGTSVIYVCAVIILILIWVAIIGQRQIWRHRHNVARVRPQVSLSSRISSKKAVLLRETQLDTVMRLRCENQARLTDCISLQFHGEKPYVHRMIAVDEVTLEIDGQLNRIEGAVQRQAGESTYSYLKRIREKVPSIPLNLVHRIAFLQESARFRPEKFDVEQVMELRSLLNQFLRILSAEYDSLSDEPDMAAPRGVIASFYQFGQKIMPNNSGSKRRRNKFGGSDGVRLLMKEREEQLSLLSPLARASADSPAPAAHLRRQSDSHSALLPQ
